Experimental data: the DeepSol protein solubility set

Experiment: soluble on expression in E. coli; label from the status in PepcDB or PDB records

MGSDKIHHHHHHMRERTVDYSFCGMVRSRERLARQIVFHHIPKTAGSSFNQILRTLYRDDEVCDAALDDELDEVMADETRRYELFVGHFSFDALHRHFGGATRLTFLRDPVQRCISQYHNWHDASRYSDAWIGRSDTNPDVIKALKMTSEMSLCEFVSSDNLVISDSAQNMMTRYLAPSVEWKKERGYYDAELVEKAKRNLVEYFHFFGLTEQFDRSLVLLAHTLGIRPWERSDALLTNRNPKKASFDSVYNTTPEEGGVLRDYNLMDIELYEFAVKEFNRRFDAGYQKLVECAFEYLADKDTRDMGNAGDFYAFDMTNAVGARGLHFLESTRLPCGADVLGRWTGLEPRAVWEIPLRAGRDSHVVIEVDYIDSVSPEALAPEHFTLNGMPARQHAFSAEGSIQRLRLVFSAGAALAGRMLHTLKLTTPLVRAEDGTRDVGVLLLRLQSYSV
soluble on expression in E. coli: not soluble

GMLKLCGFAASNYYNKVKLALLEKNVPFEEVLAWIGETDTTATPAGKVPYMITESGSLCESEVINEYLEAAYPQTPLLPRDPMQAGKVREIVTFLELYLELTARELYPEAFFGGKVSDNVKERQLKLLSRYVPAFAKLAKFSPYVAGDTFTLADCAAAVHLPLVSSCTKIIYGKDLLADLPVKEYLKTLSERPSVQKVNADRKANTELMLSRNK
soluble on expression in E. coli: soluble

MRAIDLNSDLGESFGAWSMGDDAAMLDIVTSANVACGFHAGDPAGILRTLKAAAAKNVTIGAHVSYPDKVGFGRRNMDVASDELTADVIYQIGSLQGLAKAAGTSVRYVKPHGALYNTIAHDRRQAMAVIEAIRAIDPALVLVALAGSTLIELARSEGLQCIAEAFADRAYTPQGTLVSRREPGAVLHDPELVAQRMLRLVQSGSIEAIDGSLVRIEADSICVHGDSPAAVEMARELRRVLEQASTSLQPFAGKRS
soluble on expression in E. coli: soluble

MGSDKIHHHHHHMKPQLIASCWTSAGDAAPDRDDLSSPVAIDERIALVAETGWAGIGLVHADLIKARDTIGYEELRRRIHAAGIEIIEVEFLNGWWATGAERQESDAVRADLFAAAQALGSPHIKVGAGEGTNGVVPIAHMASAFTDLAAEAEAHGVKLALEATPFSHLKTIYDALEVVSHSDSPSAGLMVDIWHTAKIGIPNDELWRNIPLSKVNAVEVDDGFIDTPIDLFDDSTNRRAYCGEGEFDPASFIRGAIDAGWTGAYGVEIISAEHRSLPVKEGLQRAFDTTIAAFEQAARLAPSTN
soluble on expression in E. coli: not soluble

MKQHQSADNSQGQLYIVPTPIGNLADITQRALEVLQAVDLIAAEDTRHTGLLLQHFGINARLFALHDHNEQQKAETLLAKLQEGQNIALVSDAGTPLINDPGYHLVRTCREAGIRVVPLPGPCAAITALSAAGLPSDRFCYEGFLPAKSKGRRDALKAIEAEPRTLIFYESTHRLLDSLEDIVAVLGESRYVVLARELTKTWETIHGAPVGELLAWVKEDENRRKGEMVLIVEGHKAQEEDLPADALRTLALLQAELPLKKAAALAAEIHGVKKNALYKYALEQQG
soluble on expression in E. coli: soluble

MGSDKIHHHHHHMPQYTVYLAPAGYEQDLIDELGPRVIDVRGRLVRASGGPRHAAWAQNIWLDPVEMRIGSIGDAATRLKGIQRNWFLHAVDHHRRAALIAGKLPHVSARPHVFGTPAPTAPLGSWTLWEHDLVIASARCSSPFPDGEVHFVENRIDPPTRAYLKLWETFTRLGVQPAPGELCLDMGSCPGGWTWVLAGLGARVFSVDKADIAPHIAAMPNVNFCTGSAFGLDPQHAGAVDWFFSDVICYPDRLLATVQRWLERGQCRNFVCTLKFQATTDHATAAAFAAIPGSQLFHLAHNKHELTWVLLRDKA
soluble on expression in E. coli: not soluble

MQLDEDDMIINIFWADDRSISDYNLFGDVICFEQLIRPMHMIDPLLICRGQSSQANSCVW
soluble on expression in E. coli: not soluble

MGYCIIIPAYNAARTLPAVVREVLGLGMPCLVVDDGSTDGTSATVEGLGVHLLRHDGNRGKGAALRTGFEWALAHGYSGVVTLDADGQHDPTAIPLLAATARERNVDILIASRDTQFREMAGLRSVWNRFGVWCMRKRTGFTITDSQSGFRWYSARLLKGVSLEASGYHLEMEILMKAWRGGFAIDSLPVAARVADGRATSHFRPVRDTWNICMTFLRHMLEHHHHHH
soluble on expression in E. coli: soluble

MGSDKIHHHHHHMHQPSDFQVFRTLDRTSNARLLRSSTLSDGLALAHWYRDEAEILGYSDPGHHTLSLYLQGGWQTFRRDRPGLYGGPDRFCVMPAEHHSDWAVTRGLGFMHLYISPERLAGAAVRTLDCEPRSLQLEERTYIQDEPLAALCRTLERQDWNEPGEHLLCTSLAHQAVDHLLLTGCGRRTDVRWQGGLAAHVRRRLADYIESHLEQPLELGSLAELAALSEYHFARMFRVSFGLPPHRYVLERRLARARDLLAYSAQPLQEVSLACGFASPSHFNRRFREAHGATPGQYRAALKAS
soluble on expression in E. coli: not soluble

DITVYNGQHKEAATAVAKAFEQETGIKVTLNSGKSEQLAGQLKEEGDKTPADVFYTELTATFADLSEAGLLAPISEQTIQQTAQKGVPLAPKKDWIALSGRSRVVVYDHTKLSEKDMEKSVLDYATPKWKGKIGYVSTSGAFLEQVVALSKMKGDKVALNWLKGLKENGKLYAKNSVALQAVENGEVPAALINNYYWYNLAKEKGVENLKSRLYFVRHQDPGALVSYSGAAVLKASKNQAEAQKFVDFLASKKGQEALVAARAEYPLRADVVSPFNLEPYEKLEAPVVSATTAQDKEHAIKLIEEAGLK
soluble on expression in E. coli: soluble

GTQGKVIKCKAAIAWKTGSPLCIEEIEVSPPKACEVRIQVIATCVCHTDINATDPKKKALFPVVLGHECAGIVESVGPGVTNFKPGDKVIPFFAPQCKRCKLCLSPLTNLCGKLRNFKYPTIDQELMEDRTSRFTCKGRSIYHFMGVSSFSQYTVVSEANLARVDDEANLERVCLIGCGFSSGYGAAINTAKVTPGSTCAVFGLGCVGLSAIIGCKIAGASRIIAIDINGEKFPKAKALGATDCLNPRELDKPVQDVITELTAGGVDYSLDCAGTAQTLKAAVDCTVLGWGSCTVVGAKVDEMTIPTVDVILGRSINGTFFGGWKSVDSVPNLVSDYKNKKFDLDLLVTHALPFESINDAIDLMKEGKSIRTILTF
soluble on expression in E. coli: soluble

MGSDKIHHHHHHMAEITSISQFLSTAKTQFQVYDLGRRVQHIDAMAFAQIEALQAPYPYPIQGHAKMALVFWDASEQHFVWFISLPLDERGLLSPAPRSHFIQMILEALGQDLTRTLSEDEQQKMANHPFSFKPTQEKLAVFNALVRRHLGRSASSQYEFAAQYLSGQLPAESWPNVGFQGLADICVRLGELDHAAMVARALKNAPMEVQIALCQCLEHVLVSDEVKDALLAGLEEHRDARLIYFLRALGSQSDASVRAIASLAEKRLLTEEVLICIAGRNWLALRDDVCRKNFLEALALMPQDFFNQVFADIVAIPALRTSMLMAIRDPNRSDALSLAIGGLFKATKS
soluble on expression in E. coli: not soluble

MTDETTQNIKDKTEEELAALLDQTLGEFTATPAPKPRTTDDELDELMASADQEAAQKAAKDFQKMLEQMVTLQEEAMKKAGADPSEGEGEQPLDPNDPEALAMMDALKQLMECSSNVANASNPEEFMAGLDMLRSPNSPMEPFMSMIMQTLASKEVMYPPLKEIFDNYPKYLEDNGAGLDAETKERYEKQFEVLGKICTEFEKQPELAEVQPVDAATQPAPEADPASIEHFEKLGKLLVELQQYGYPPKELVGALPDGWQIDESGLPKVADAAAATEACSIM
soluble on expression in E. coli: soluble

LEKNDLVYMQRAFELNDKVAKDIMIDRTQLVVIDITSTVKEALNVYLQERFSRLPVVADNDKDKVLGYVYNYDLTRQQQVDSSVRVDKLIRDISTTPETTPITQVLQQMIKKRTPIVVVVDEYGGTSGIITDKDIYEEL
soluble on expression in E. coli: not soluble

MNKYDIAVIGGGMVGAAVAVGFAKQGRSVVVVEGAEPKAFDAAQALDVRVSAISHQSVKLLESLDAWSAIEAMRVCPYRRLETWEHPECRTRFHSDELSLDQLGYIVENRLIQLGLWQAFAQFDNLTVKCPERLKDIDFNDGNRITLESGEQFDANWIIGADGANSKVRQLAGIGVTAWDYRQHCMLINVKTELPQQDITWQQFTPSGPRSFLPLCSLTEDGQEVGQGSLVWYDSPKRIKQLCAMTKPQLREEIVRHFPKELGDIEVLQFGSFPLTRRHAQSYSHRGCVLVGDSAHTINPLAGQGVNLGFKDVDVLLSVTQGQDELTDALLAKYERTRRPDNLLMQTGMDFFYKGFSNDLGPLKFARNAALKLAENSGPIKAQVLKYALGMLEHHHHHH
soluble on expression in E. coli: not soluble

MSLENKETTTTTTTTNNGSDKKKRSLKIDLHTHILPKNWPNLKEKYGYGGWVSLDHHCSCKAKMMIDGKFFREIDSNCWDPDVRIQELNRDDVDIQVLSTVPVMFGYWAKPQDALDLAQYLNDHIAQVVSENPKRFIGLGSLPMQCTESSIQELRRCILELGLPGIQIGSNVNGKNLDDPSLFPIFEECEKLGAAVFIHPWEMVGKDRMPQYWLPWLVGMPAETCLAICSMIFGGVFQRLPNLKVCFAHGGGSFPFTIGRIEHGFNARPDLCAVVNPINPREYIGKFWVDSLVHDEEALKFLVNLMGEKKVTLGTDYPFPLGELVPGQLIESIKEFSETTKENLLGGNALEFLGLDPNKYLEGHHHHHH
soluble on expression in E. coli: soluble

MREEFLEEIPLDAPPEEAKELRTEVMTLNVGPQHPSTHGVLRLMVTLSGEEVLEVVPHIGYLHTGFEKTMEHRTYLQNITYTPRMDYLHSFAHDLAYALAVEKLLGAVVPPRAETIRVILNELSRLASHLVFLGTGLLDLGALTPFFYAFRERETILDLFEWVTGQRFHHNYIRIGGVKEDLPEEFVPELKKLLEVLPHRIDEYEALFAESPIFYERARGVGVIPPEVAIDLGLTGGSLRASGVNYDVRKAYPYSGYETYTFDVPLGERGDVFDRMLVRIREMRESVKIIKQALERLEPGPVRDPNPQITPPPRHLLETSMEAVIYHFKHYTEGFHPPKGEVYVPTESARGELGYYIVSDGGSMPYRVKVRAPSFVNLQSLPYACKGEQVPDMVAIIASLDPVMGDVDR
soluble on expression in E. coli: soluble

MKSACSIITASIVLYKSKPDIIRDVITSFFSDTVTKKKLILIDNSPTDSLRVLQEERPEDIQYFFNNRNIGFGSAHNIGIREAARFNPSYHLILNPDVQFGPEVVPTLASYMDENPDIGLLMPQVYYPNGELQHLCKLFPRPWDVMLRRFVPYRSYRERNNERFELRNWSYDTIQDIPSLSGCFMFARMDILREVGGFDERFFMYAEDLDLCRRIGQVSRTVFFPKVSIMHTYAKGSYHDAKLLRHHIVSLIRYFNKWGWLFDAERRRVNRACLAVLRNQTTVKKD
soluble on expression in E. coli: not soluble

GPGSMADAYRERALPTLSVLERLRCLRREHVPYASHYCEENAYKLVEALYRDFSLPDHAVFAVFISNDCKSTPVWKQRLGNGRCPLMWDYHVITLVNVGAGDEGGMWAFDQDTTLPFPCEGLRYIEESFHPEMQLDDKYRQRFRVVPGRDYLEYFSSDRSHMKDFDAAQPPWPLIRGCRAPSDMRLGLYVDVHQSSSGEDVKKEQGCGKILSIAELISFVSP
soluble on expression in E. coli: soluble

ICTTICPYGRLQGVLLDKNSINVAYDYIRGERRGHLKRGEDREIAGKGDCIDCHQCVHVCPTGIDIRNGVQMECINCTACIDEC
soluble on expression in E. coli: not soluble

MSNLIELALRNAALDRTKLLSQVQKIEFLNGYDPRFVEGLISLEMIGDIDEYVASLMYVKMTDKYTQEEKEQLTDTILTINNDRLISCQYRFPQLYQKLMQDQFLSTFFSSSHLLPNIAPGTNNQSYETVSTNNKMKMESAKLYGHYEYYQCVVALITQIDGSRYFYHLNPNRIFGDYMGSAPLKLSGSELKDVKDITFILHPRSMVDYREFQRLQERNIVFKTVMLPVGAKSVSLSYDTDKDVLTVNNLEAGQTVTYNNLLQTPQYNRYQYTPEQYFMTQLYRGQTWAEALGEALDKYIVTRQEGATWWDLKPLFFNRKTTKNNMIAAARIKKEIEAGATSFDFTGVSRNGLLNQLLTTAVDYQLEYQRGLQNGVLSAEDLTTSAALR
soluble on expression in E. coli: not soluble
